Measurements reported in the supplement of paper PMC7877785.
± gives the uncertainty stated by the source.

Experiment: self-splicing fitness, log relative to wild type (ln ratio); higher = more splicing; Tetrahymena group I intron in knt gene, E. coli kanamycin selection, DiMSum; sequences stand for … in CUCUCU…GGAGGGAAAAGUUAUCAGGCAUGCACCUGGUAGCUAGUCUUUAAACCAAUAGAUUGCAUCGGUUUAAAAGGCAAGACCGUCAAAUUGCGGGAAAGGGGUCAACAGCCGUUCAGUACCAAGUCUCAGGGGAAACUUUGAGAUGGCCUUGCAAAGGGUAUGGUAAUAAGCUGACGGACAUGGUCCUAACCACGCAGCCAAGUCCUAAGUCAACAGAUCUUCUGUUGAUAUGGAUGCAGUUCACAGACUAAAUGUCGGUCGGGGAAGAUGUAUUCUUCUCAUAAGAUAUAGUCGGACCUCUCCUUAAUGGGAGCUAGCGGAUGAAGUGAUGCAACACUGGAGCCGCUGGGAACUAAUUUGUAUGCGAAAGUAUAUUGAUUAGUUUUGGAGUACUCGUGGUCG
In short: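 Fitness was computed with DiMSum as the error-weighted combination of replicate fold changes, kanamycin versus none, each normalised to wild type. The library randomised all eight intron nucleotides of the P1ex region, with the intron placed in the knt kanamycin-resistance gene on pET-22b(+) in E. coli BL21(DE3). Six replicate transformations were grown overnight at 37°C or 30°C on LB agar with or without 25 μg/mL kanamycin, plus 100 μg/mL carbenicillin, 50 μM IPTG and 0.2% rhamnose. Pooled colonies were amplicon-sequenced on an Illumina HiSeq 2500.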

Sequence | self-splicing fitness (ln) (30 °C) | self-splicing fitness (ln) (37 °C)
CAACAGCAAUAUUACGCGGU | -2.36 ± 0.12 | -2.88 ± 0.28
GAAUAGCAAUAUUACGUGGA | -3.38 ± 0.25 | -1.17 ± 0.15
ACUUAGCAAUAUUACGCGAG | -1.93 ± 0.15 | -1.76 ± 0.13
UCCAAGCAAUAUUACGGCGA | 0.214 ± 0.078 | 0.225 ± 0.086
ACGAAGCAAUAUUACGUUCG | -1.3 ± 0.083 | -0.906 ± 0.11
GAUAAGCAAUAUUACGGAAU | -3.09 ± 0.14 | -2.28 ± 0.14
ACUUAGCAAUAUUACGCAGU | -3.83 ± 0.35 | -2.17 ± 0.21
AACGAGCAAUAUUACGCAGC | -2.29 ± 0.29 | –
AUGUAGCAAUAUUACGCACG | -1.02 ± 0.11 | 0.147 ± 0.14
AUACAGCAAUAUUACGUGCU | -3.03 ± 0.15 | -1.18 ± 0.12
ACCCAGCAAUAUUACGUCAG | -3.14 ± 0.11 | -1.22 ± 0.092
UGGUAGCAAUAUUACGUAAU | -1.61 ± 0.19 | -0.903 ± 0.16
GCCAAGCAAUAUUACGUGAG | -1.17 ± 0.071 | -0.535 ± 0.084
UUCCAGCAAUAUUACGAUUU | -2.34 ± 0.088 | -0.783 ± 0.1
CCCUAGCAAUAUUACGAGAC | -3.85 ± 0.22 | -2.69 ± 0.34
CACGAGCAAUAUUACGCAGC | – | -1.29 ± 0.35
UCUAAGCAAUAUUACGCGCA | -0.493 ± 0.11 | -0.561 ± 0.13
GAAAAGCAAUAUUACGCUGU | -2.75 ± 0.15 | -0.534 ± 0.12
CCCCAGCAAUAUUACGAGAG | -3.91 ± 0.23 | -2.05 ± 0.17
GGGGAGCAAUAUUACGGCUG | -2.72 ± 0.15 | -1.09 ± 0.22
AGCUAGCAAUAUUACGAUAC | -3.44 ± 0.49 | -1.59 ± 0.28

Sequence | self-splicing fitness (ln) (30 °C) | self-splicing fitness (ln) (37 °C)
CAGUAGCAAUAUUACGACUC | -0.076 ± 0.18 | 0.539 ± 0.28
UAGCAGCAAUAUUACGUCCC | -3.06 ± 0.41 | -1.7 ± 0.4
UUAUAGCAAUAUUACGGCGC | -0.766 ± 0.18 | -0.308 ± 0.17
AGUCAGCAAUAUUACGGUCC | -0.805 ± 0.096 | 0.201 ± 0.13
CGAAAGCAAUAUUACGAACC | -0.666 ± 0.14 | -0.796 ± 0.16
CUAGAGCAAUAUUACGGACA | -2.86 ± 0.16 | -1.96 ± 0.29
CAUGAGCAAUAUUACGAUUC | -3.18 ± 0.21 | -1.66 ± 0.19
AGAAAGCAAUAUUACGGUCC | -0.555 ± 0.12 | 0.317 ± 0.16
GUAUAGCAAUAUUACGCUCU | -1.76 ± 0.13 | -1.23 ± 0.15
UGAAAGCAAUAUUACGCUGU | -3.67 ± 0.19 | -1.73 ± 0.17
CUAAAGCAAUAUUACGCCUG | 0.183 ± 0.087 | 0.129 ± 0.099
CUCCAGCAAUAUUACGUGGU | -3.42 ± 0.12 | -3.19 ± 0.15
UGAUAGCAAUAUUACGUAGG | -1.66 ± 0.16 | -0.583 ± 0.16
UUGGAGCAAUAUUACGUUCG | -2.23 ± 0.16 | -0.989 ± 0.17
CACAAGCAAUAUUACGAAUA | -2.08 ± 0.27 | -2.71 ± 0.23
ACGAAGCAAUAUUACGUGUU | -2.94 ± 0.07 | -1.81 ± 0.07
CCGGAGCAAUAUUACGAGCG | -0.715 ± 0.082 | 0.256 ± 0.12
CAUAAGCAAUAUUACGUUCG | -0.99 ± 0.079 | 0.184 ± 0.09
AACUAGCAAUAUUACGUAUG | -3.11 ± 0.11 | -1.22 ± 0.11
CCUGAGCAAUAUUACGUGUA | -3.53 ± 0.2 | -2.16 ± 0.2
GUCAAGCAAUAUUACGUCUG | -3.64 ± 0.28 | -0.0416 ± 0.085

Sequence | self-splicing fitness (ln) (30 °C) | self-splicing fitness (ln) (37 °C)
CCCGAGCAAUAUUACGAUCU | -3.09 ± 0.19 | -2.68 ± 0.23
CAAGAGCAAUAUUACGGCUC | -3.78 ± 0.24 | -2.27 ± 0.32
CUCGAGCAAUAUUACGUCCA | -1.95 ± 0.25 | -3.15 ± 0.47
ACAUAGCAAUAUUACGGGCC | – | -1.59 ± 0.2
UGACAGCAAUAUUACGUGCA | -1.06 ± 0.079 | 0.394 ± 0.11
CUCUAGCAAUAUUACGCGAC | -3.14 ± 0.24 | -2.75 ± 0.3
AGCGAGCAAUAUUACGUGUU | -3.06 ± 0.16 | -2.79 ± 0.26
AUGCAGCAAUAUUACGCUAU | -2 ± 0.12 | -1.33 ± 0.14
CCAGAGCAAUAUUACGGGUU | -3.1 ± 0.23 | -2.63 ± 0.26
AAGAAGCAAUAUUACGUACG | -0.925 ± 0.092 | -0.719 ± 0.11
GAGUAGCAAUAUUACGAACG | -2.36 ± 0.48 | –
ACCUAGCAAUAUUACGCUGU | -1.54 ± 0.071 | -0.737 ± 0.078
CUAAAGCAAUAUUACGACUA | -2.79 ± 0.21 | -1.78 ± 0.17
UCCCAGCAAUAUUACGCUAG | -3.45 ± 0.18 | -2.9 ± 0.34
GACAAGCAAUAUUACGUAAG | -2.11 ± 0.12 | -1.36 ± 0.14
GGCAAGCAAUAUUACGUGCU | -3.91 ± 0.16 | -2.99 ± 0.2
AAUAAGCAAUAUUACGGGCC | -2.8 ± 0.39 | -2.21 ± 0.31
CCUAAGCAAUAUUACGUAAA | -3.49 ± 0.24 | -2.43 ± 0.16
GGUCAGCAAUAUUACGUGCA | 0.0844 ± 0.11 | 0.539 ± 0.15
